Measured values: article PMC4288197, “Novel RNA chaperone domain of RNA-binding protein La is regulated by AKT phosphorylation”
Where a chain is given by its changes, count along the chain named.

T1: La WT (LARP3) (Homo sapiens, UniProt P05455 1-408)
T1 sequence: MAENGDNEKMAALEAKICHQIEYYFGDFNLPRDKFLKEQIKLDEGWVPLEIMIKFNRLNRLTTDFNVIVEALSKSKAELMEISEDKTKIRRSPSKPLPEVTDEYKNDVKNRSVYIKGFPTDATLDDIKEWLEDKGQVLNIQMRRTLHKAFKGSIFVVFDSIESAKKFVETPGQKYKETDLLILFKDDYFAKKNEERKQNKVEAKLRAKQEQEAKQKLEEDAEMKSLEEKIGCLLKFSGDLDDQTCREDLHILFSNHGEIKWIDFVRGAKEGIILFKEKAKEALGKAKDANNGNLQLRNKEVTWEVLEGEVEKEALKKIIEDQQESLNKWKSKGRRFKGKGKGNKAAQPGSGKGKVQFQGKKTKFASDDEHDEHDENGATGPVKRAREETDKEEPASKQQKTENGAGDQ

T2: LaΔRCD (Homo sapiens, UniProt P05455 1-408, R334G;R335G;F336V;K337G;G338G;K339G;F357V;K360G;K361G;T362T;K363G;F364V)
T2 sequence: T1 sequence with R334G, R335G, F336V, K337G, K339G, F357V, K360G, K361G, K363G, F364V

T3: LaΔ1 (LAM deleted) (Homo sapiens, UniProt P05455 1-408, del11-99)
T3 sequence: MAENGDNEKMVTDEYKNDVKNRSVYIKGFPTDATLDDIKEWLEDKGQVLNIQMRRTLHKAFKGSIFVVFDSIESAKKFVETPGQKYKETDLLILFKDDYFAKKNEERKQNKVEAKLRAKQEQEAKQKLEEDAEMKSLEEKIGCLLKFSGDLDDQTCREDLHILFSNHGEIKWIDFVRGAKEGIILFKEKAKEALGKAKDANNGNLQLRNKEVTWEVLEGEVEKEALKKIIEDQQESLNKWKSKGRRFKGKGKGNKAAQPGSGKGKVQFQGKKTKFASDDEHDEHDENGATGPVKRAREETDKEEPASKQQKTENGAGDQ

T4: La-Δlinker (Homo sapiens, UniProt P05455 1-408, del170-230)
T4 sequence: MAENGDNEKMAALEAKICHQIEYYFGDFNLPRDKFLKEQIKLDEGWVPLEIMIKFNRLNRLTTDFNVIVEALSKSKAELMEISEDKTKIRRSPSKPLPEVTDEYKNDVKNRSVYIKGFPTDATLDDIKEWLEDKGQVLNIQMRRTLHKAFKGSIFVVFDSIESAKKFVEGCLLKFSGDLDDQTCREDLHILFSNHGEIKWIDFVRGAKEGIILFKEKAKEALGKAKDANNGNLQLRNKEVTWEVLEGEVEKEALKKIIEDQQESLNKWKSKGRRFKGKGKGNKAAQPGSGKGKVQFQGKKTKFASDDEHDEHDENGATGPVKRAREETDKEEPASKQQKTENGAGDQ


Columns and labels:
La WT (LARP3) [1] = target: T1, La WT (LARP3); assay: competition; vs labeled D1-AUG; 20 mM Tris/HCl pH 8.0, 150 mM NaCl, 1.5 mM MgCl2, 0.5 mM EDTA, 0.5% NP-40 (FP: IGEPAL CA-630, 100 ug/ml bovine gamma globulin), 10 nM RNA, room temperature; settings: protein: recombinant; tags: His
LaΔRCD = target: T2, LaΔRCD; assay: EMSA; similar to WT; two complexes at high La; 20 mM Tris/HCl pH 8.0, 150 mM NaCl, 1.5 mM MgCl2, 0.5 mM EDTA, 0.5% NP-40 (FP: IGEPAL CA-630, 100 ug/ml bovine gamma globulin), 10 nM RNA, room temperature; settings: protein: recombinant; tags: His; label: 32P (EMSA) or 5'-FAM (FP); hairpin (predicted)
LaΔ1 (LAM deleted) = target: T3, LaΔ1 (LAM deleted); assay: EMSA; affinity similar to WT; two complexes; 20 mM Tris/HCl pH 8.0, 150 mM NaCl, 1.5 mM MgCl2, 0.5 mM EDTA, 0.5% NP-40 (FP: IGEPAL CA-630, 100 ug/ml bovine gamma globulin), 10 nM RNA, room temperature; settings: protein: recombinant; tags: His; label: 32P (EMSA) or 5'-FAM (FP); hairpin (predicted)
La-Δlinker = target: T4, La-Δlinker; assay: EMSA; 20 mM Tris/HCl pH 8.0, 150 mM NaCl, 1.5 mM MgCl2, 0.5 mM EDTA, 0.5% NP-40 (FP: IGEPAL CA-630, 100 ug/ml bovine gamma globulin), 10 nM RNA, room temperature; settings: protein: recombinant; tags: His; label: 32P (EMSA) or 5'-FAM (FP); hairpin (predicted)
La WT (LARP3) [2] = target: T1, La WT (LARP3); assay: as above; settings: protein: recombinant; tags: His; label: 32P (EMSA) or 5'-FAM (FP); hairpin (predicted)
La WT (LARP3) [3] = target: T1, La WT (LARP3); assay: fluorescence polarization; 5'-FAM RNA; 20 mM Tris/HCl pH 8.0, 150 mM NaCl, 1.5 mM MgCl2, 0.5 mM EDTA, 0.5% NP-40 (FP: IGEPAL CA-630, 100 ug/ml bovine gamma globulin), 10 nM RNA, room temperature; settings: protein: recombinant; tags: His; label: 32P (EMSA) or 5'-FAM (FP); hairpin (predicted)

Binder | binding result (La WT (LARP3) [1]) | binding result (LaΔRCD) | binding result (LaΔ1 (LAM deleted)) | binding result (La-Δlinker) | Kd (La WT (LARP3) [2]) | Kd (La WT (LARP3) [3])
CAGGAAGAGCCCCAGCCAGGGAACACCAGCUCCUG (ssRNA) [D1-mu2] | binds |  |  |  |  | 
GCUGCCCAGGAAGAGCCCCAGCCAUGGAACACCAGCUCCUGUGCUGC (structured_RNA) [D1-AUG] |  | binds | binds | no binding | 80.3 nM | 76 nM
CAGGAAGAGCCCCACAGAUGCACCACCAGCUCCUG (ssRNA) [D1-mu3] | no binding |  |  |  |  | 
